Experimental data: the nanobody polyreactivity screen of Harvey et al. (2022)

Assay: yeast display, Sf9 membrane polyspecificity reagent, FACS + sequencing; frameworks hold sequencing errors
Outline: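 After 36–48 hours of galactose induction, yeast (Saccharomyces cerevisiae BJ5465) displaying a synthetic nanobody library were stained at 4 °C for 1 hour with 10% biotinylated, detergent-solubilized Sf9 membrane reagent. Streptavidin microbeads enriched the stained cells before FACS sorting into low and high (top ~1%) gates on anti-HA and streptavidin fluorescence. Each clone's polyreactivity label reflects its gate of origin.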

Row | Sequence | polyreactivity (PSR sort gate)
1 | QVQLVESGGGLVQAGGSLRLSCAASGRIFQYYAMGWYRQAPGKERELVAAITRSGGRTYYADSVKGRFTISRDNAKNTVFLQMNSLKPEDTAVYYCAARDWYYTMYYWGQGTQVTVSS | high polyreactivity
2 | QVQLVESGGGLDQAGGSLPLSCAASGNTFYPNAMGWYRQAPGKERELVAAITTSGGTTYYADSVKGRFTISRDNANYTVYLQMNSLKPEDTAVYYCAAYWSRDKYDYWGQGTQVTVSS | low polyreactivity
3 | QVQLVESGGGLVQAGGSLRLSCAASGITFPYYAMGWYRQAPGKERELVAAINGNGGRTYYADSVKGRFTISRDNAKNNVYLDMNSLKPEDTAVYYCADRVVHVKGPRMDYWGQGTQVTLSS | high polyreactivity
4 | EVQLVESGGGLVQAGGSLRLSCAASGRTIGFNGMAWYRQAPGKERELFAAITRSGGNTYADSVKGRFTISRDNAKNTVYLQMNSLNPEDSAVYYCATTYVGETLTGPGDYWGQGTQVTVSS | low polyreactivity
5 | QVQLVESGGGLVQAGGSLRLSCAASGLIFSYNAMGWYRQAPGKERELVAAISYSGGSTYYADSVKGRYTISRDNAKYTVYLQMNSLKPEDTAVYYCAAVLSPDFYYWGQGTQVTVSS | high polyreactivity
6 | QVQLVESGGGLVQAGGSLRISCAASGFTFYRYAMGWYRQAPGKESELVAAITRSGRTYYADSVKGRFTISRDNAKNTFYLQMNSLKPEDTAVYYCYADWGLGTQVTVSS | high polyreactivity
7 | QVQLVESVGCLVQAGGSLRLSCAASGFNFGYNAMGWYRQAPGKERELVAAITWIGGTTYYADSVKGRFTISRYNAKYTVYLQMNILKPEDTAVDYCNALRRGVRDPYGYWGLGTQVTVSS | high polyreactivity
8 | QVQLVESGGGLVQAGGSLRLSCAASGFTFAYYAMGWYRQAPGKEREFVAVITWSGGDTYYADSVKGRFTISRDNAKNTVYLQMNSLKPEDTAVSYCAATYWGTRRIYAYGYWGQGTQVTVSS | high polyreactivity
9 | QVQLVESGGGLVQAGGSLRLSCAASGRIFSSNAMGWYRQAPGKEWELVAAITRGGSTNYADSVKGRFTISRDNAKNTDYLQMNSLKPEDTAVYYCNVDYYVFNHQGHLNYDYWGQGTQVTVSS | high polyreactivity
10 | QVQLVESGGGLVQAGGSLRLSCAASGRTFTVYAMGWYRQAPGKEREFVAAITERGGSTYYADSVKGRFTISRDNAKNTVYLQMNSLKPEDTAVYYCAAVYYWRPGWYVRFDYWGQGTQVTVSS | low polyreactivity
11 | QVQLVESGGGLVQAGGTLRLSCAASGSIFRRKVMVWYRQAPGKERELVAAMSWSGDRTYYADSVKGRFTISRDNAKNTVYLQMNSLKPEDTAVYYCAAANASPRRYGQYDDWGQGTQVTVSS | high polyreactivity
12 | QVQLVESGGGLVQAGGSLRLSCAASGYAMGWYRQAPGKERELVAAISWSGDITYADSVKGRFTISRDNAKNTVYLQMNSLKPEDTAVYYCNADRYTGRDGEQSLDYWGQGTQVTVSS | low polyreactivity
13 | QVQLVDSGGGLVQAGGSLRISCAASGFIFSSYAMGWSRQAPAKERELVAAISSRGGSTYYADSVKGRFTISRDNAKNTVYLQMNSLKPEDTAVYYCNAYLSPYVQTSRYDDDYWGQGTQVTVSS | high polyreactivity
14 | QVQLVESGGGLVQAGGSLRLSCAASGRTFTYYAMGWYRQAPGKEREFVASISLSGGRTYYADSVKGRFTISRDNAKNTVYLQMNSLKPEDTAVYYCNAYYPRVHRSDYWGQGTQVTVSS | low polyreactivity
15 | QVQLVESGGGLVKAGGSLRLSCAASGRIFWAYAMGWYRQAPGKERELVAAINSGGRTYYADSVKGRFTISRDNAKNTVYLQMNSLKPEDTAVYYCAAAGVYSSDYWGQGTQVTVSS | low polyreactivity
16 | QVQLVESGGGLVQAGGSLRLSCAASGSIFGRYVMGWYRQAPGKERELVARITQSGGSTYYADSVKGRFTISRDNAKNTVYLQMNSLKPEDTAVYYCAAATSWWWLYYWGQGTQVTVSS | high polyreactivity
17 | QVQLVESGGGLVQAGGSLRLSCAASGSTLAIYAMGWYRQAPGKERELVAAISRSGGTTYYADSVKGRFTISRDNAKNTVYLQMNSLKPEDTAVYYCYPYFWYPDGYTYDYWGQGTQVTVSS | high polyreactivity
18 | QVQLQESGGVLVQAGGSLRLSCAASGNILDADIMGWYRQAPGKERELVASITDGGSTNYADSVKGRFTISRDNAKNTVYLQMNSLKPEDTAVYYCAAIAYPDIPTYFDYDSEYFYWGQGTQVTVSS | low polyreactivity
19 | QVQLVESGGGLVKAGGSLRLSCAASGFTFAYYAMGWYRQAPGKERELVAAISGSGGSTYYADSVKGRFTISRDNAKNTVYLQMNSLKPEDTAVYYCAAARRSTWSYSYYWGQGTQVTVSS | high polyreactivity
20 | QVQLVESGGGLVQAGGSLRLSCAASGRIFYYNPMGWYRQAPGKERELVAAITKSGGRTYYADSVKGRFTISRDNSKNTVYLQMYSLKPEDTAVYYCAALSRAGEYDYWGQGTQVTVSS | high polyreactivity
21 | QVQRVESGGGLVQAGGSLRLSCAASGSTLRKYVMGWYRQAPGKERELVAAISSSGGRTYYADSVKGRFTISRDNAKYTVYLQMNSLKPEDTAVYYCAATRYIPGFYYWGQGTQVTVSS | high polyreactivity
22 | QVQLVESGGGLVQAGGSLRLICAASGLIFKVYAMGWYRQAPGKERELVAAITYSGGSTDYADSVKGRFTISRDNAKNTVYLQMNSLKPEDTAVYYCNVEKVGHVNSYGYDYWGQGTQVTVSS | low polyreactivity

Row | Sequence | polyreactivity (PSR sort gate)
23 | QVQLVESGGGLVQAGGSLRLSCAASGFTIRRYAMGWYRQAPGKERELVAAITTGGSTYYADSVKGRFTISRDNAKNTVYLQMNSLKPEDTAVYYCATDTYPYPLYYSPGAYGYWGQGTQVTVSS | high polyreactivity
24 | QGQLVESGGGLVQAGGSRRLSCAASGYSIDNNAMGWYRQAPGKEREVVASITNSAGSTSYADSVKGRFTISRDTAKNTVYLQMNSLKPEDTAVCYCSAKRYHYFFQYSRSGAYGYWGHGTQVTVSS | high polyreactivity
25 | QVQLVESGGGLVQAGGSLRLSCAASGSTFTDYDMGWYRQAPGKERELVAAITSGGSTNYADSVKGRFTISRDNAKNTVYLQMNSLKPEDTAVYYCKVRPYGFDSEFDYWGQGTQVTVSS | low polyreactivity
26 | QVQLVESGGGLVQAGGSLRLSCAASGFTFSFYAMGWYRQAPGKERELVAAISSGGRTSYADSVKGRFTISRDNAKNTVYLQMNSLKPEDTAVYYCAASYPGRYWLYRYEYWGQGTQVTVSS | high polyreactivity
27 | QVQLVESGGGLVQAGGSLRLSCAASGSIYLYAMGWYIQAPGKERELVADISFSDGSTYYADSVKGRFTISRDNAKNTVYLQMNSLKPEDTAVYYCAAGVWHHASWDFLEYYYWGQGTQVTVSS | low polyreactivity
28 | QVQLVESGGGLVQAGGSLRLSCAASGRTFQFYAMGWYRKAPGKEREFVAAIDLRGGSTYYADSVKGRFTISRDNAKNRVYLQMNSLKPEDTAVYYCNATRSKFGYFYRYDYWGQGTQVTVSS | low polyreactivity
29 | QVQLVESGGGLVQAGGSLRLSCAASGIIFYGNAMGWYRQAPGKERELVAAISWSGSSTYYADSVKGRFTISRDNAKNTVYLQMNSLKPEDTAVYYCAADIPYQFVRDVYYWGQGTQVTLSS | high polyreactivity
30 | QVQHVESGGCLVQAGRSLRLSCAASGRTFFPYGMGWDRQAPAKEREFVATISWSGGSTHYADSVKGRFTISRDNAKYTVYLEMNSLKPEDTAVYFCAAGNSLYWYNSGNYWGQGTQVTVSS | low polyreactivity
31 | QVQLVESGGGLVQEGGSLRIICAASGFIFYYYAMGWYRQAPGKERELVAGISRRGGSTYYADSVKGRFTISRDNAKNTVYLQMNSLKPEDTAVYYCAALGDDATSYGYWGQGTQVTVSS | high polyreactivity
32 | QVQLVESGGGLVQAGGSLRLSCAASGFTFDVYTMGWYRQAPGKEREFVAAISGSGGSTYYADSVKGRFTISRDNAKNTVYLQMNSLKPEDTAVYYCNAGLSRVSHRHRSHSLQGYDYWGQGTQVTVSS | low polyreactivity
33 | QVQLVESRGGLVQAGGSLRLSCAASGLIFASYAMGWNRQAPGKERELVAAISWSGGSTYYADSVKGRFTISRDNAKNTVYLQMNSLKPEDTAVYYCAAKRYAYGSLDYWGQGTQLTVSS | high polyreactivity
34 | QVQLVESGGGLVQAGGSLRLSCAASGLIFRLYAMGWYIQAPGKERELVAAISGGGGSTYYADSVKGRFTISRDNAKNTVYLQMNSLKPEDTAVYYCAATYSRGYWWSEYDYWGQGTQVTVSS | low polyreactivity
35 | QVQLVESGGGLVQAGGSLRLSCAASGFTFVRNTLGWYRQAPGKERELVATITFSGGSTYYADSVKGRFTISRDNAKNTVYLQMNTLKPEDTAVYYCAAEDWDDGYDYWGQGTQVTVSS | high polyreactivity
36 | QVQLVESGGGLVQAGGSLRLSCAASGSIFGYYAMGWYRQAPGKERELVAAIRGSSGSTYYADSVKGRFTISRDNAKNTVYLQMNSLKPEDTAVYYCAADYRTYVYVYGFRHFDYWGQGTQVTVSS | low polyreactivity
37 | QVQLVESGGGLVQAGGSLRLSCAASGLTFWGNTMGWYRQAPGKERELVAAISSGGITYYADSVKGRFTISRDNANNTVYLLMNSLKPEETAVYYCIGVFSFVPHEMDYWGLGTQVTVSS | high polyreactivity
38 | QVQLEESGRGLVQAGGSLRLSCAASGRTFAYYAMGWYRQAPGKERELVAAITSGGSTNYADSVKGRFTISRDNAKNTVYLQMNSLKPEDTAVYYCNARFRWPWSTYDYWGQGTQVTVSS | high polyreactivity
39 | QVQLVESGGGLVQAGGSLRLSCAASGLIFKYNAMGWYRHAPGKERELVAAISTSGGSTYYADSVKGRFTISRDNAKNTVYLQMNSLKPEDNAVYFCNAVAGRPFRYYYWGQGTQVTVSS | high polyreactivity
40 | QVQLVESGGGLVQAGGSLRLSCAASGSTFSDNAMGWYRQAPGKERELVAAITSGGSTYYADSVKGRFTISRDNAKNTVYLQMNSLKPEDTAVYYCATGGVTFGSVVRGVDGDYWGQGTQVTVSS | low polyreactivity
41 | QVQLVESGGGLVQAGGSLRLSCAASGITFYDYAMGWYRQAPWKERELVAAISFSGSRTYYADSVKGRFTISRDNAKNTVYLQMNSLKPEDTAVYYCAASQARNYKIYDYWGQGTQVTVSS | high polyreactivity
42 | QVQLVESGGGLVQAGGSLRLSCAASGRTFRWYAMGWYRQAPGKERELVAAISGSGDRTYYADSVKGRFTISRDNAKNTVYLQMNSLKPEDTAVYYCNKAYLLYYTYARGDYWGQGTQVTVSS | high polyreactivity
43 | QVQLVESGGGLVQAGGSLRLSCAASGRTFASNVMGWYRQAPGKERELVAAISRRGGSTYYADSVKGRFTISRDNAKNTVYLQMNSLKPEDTAVYYCNAVLYHLTYDYWGQGTQVTVSS | high polyreactivity
